We go through two molecules from US20240383990A1 (DIAGONAL THERAPEUTICS, published 2024).

The target of experiment [1] is T1, IL-18 receptor (IL-18Rα and IL-18Rβ) on HEK-Blue IL-18 cells (UniProt Q13478 19-541; O95256 20-599, limits assumed).
T1 sequence (looked up) 1: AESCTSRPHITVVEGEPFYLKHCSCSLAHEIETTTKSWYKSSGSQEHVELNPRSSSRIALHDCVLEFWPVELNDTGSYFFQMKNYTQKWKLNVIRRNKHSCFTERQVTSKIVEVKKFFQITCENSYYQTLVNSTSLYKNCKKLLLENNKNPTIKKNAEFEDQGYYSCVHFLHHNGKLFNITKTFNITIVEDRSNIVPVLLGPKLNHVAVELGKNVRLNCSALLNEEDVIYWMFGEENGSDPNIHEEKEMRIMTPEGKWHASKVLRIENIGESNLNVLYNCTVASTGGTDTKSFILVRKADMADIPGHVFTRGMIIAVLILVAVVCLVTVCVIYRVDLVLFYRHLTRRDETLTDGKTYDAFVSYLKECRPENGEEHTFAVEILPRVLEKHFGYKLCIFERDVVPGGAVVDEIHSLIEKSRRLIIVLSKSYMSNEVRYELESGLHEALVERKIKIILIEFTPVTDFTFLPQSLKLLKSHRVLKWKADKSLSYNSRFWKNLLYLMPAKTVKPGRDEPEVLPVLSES
T1 sequence (looked up) 2: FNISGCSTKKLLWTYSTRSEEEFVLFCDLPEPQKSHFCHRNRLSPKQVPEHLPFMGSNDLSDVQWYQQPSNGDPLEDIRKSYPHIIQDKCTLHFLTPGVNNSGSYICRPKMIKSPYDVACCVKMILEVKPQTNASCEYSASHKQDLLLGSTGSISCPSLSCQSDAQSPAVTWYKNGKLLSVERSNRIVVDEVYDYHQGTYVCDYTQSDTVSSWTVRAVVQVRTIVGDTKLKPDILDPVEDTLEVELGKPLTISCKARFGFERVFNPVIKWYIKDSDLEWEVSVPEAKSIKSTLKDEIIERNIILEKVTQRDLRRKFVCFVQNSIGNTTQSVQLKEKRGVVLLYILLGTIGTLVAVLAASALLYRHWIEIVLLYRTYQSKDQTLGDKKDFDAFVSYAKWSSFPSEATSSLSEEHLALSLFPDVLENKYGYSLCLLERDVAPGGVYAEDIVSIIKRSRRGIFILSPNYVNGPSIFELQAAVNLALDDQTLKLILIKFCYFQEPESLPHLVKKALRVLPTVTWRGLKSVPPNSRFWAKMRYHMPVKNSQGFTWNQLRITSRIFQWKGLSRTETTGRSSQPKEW
Nature of the experiment: cell-based or functional assay.

Experiment [2] addresses T1, IL-18 receptor (IL-18Rα and IL-18Rβ) on …. Nature of the experiment: cell-based or functional assay. The source holds these as a separate data set.

B1: DGL209 (bispecific antibody)
chain 1: QVQLVESGGGLVQAGGSLRLSCAASGRTFSKHAMGWFRQAPGKEREFVAAIDWSGGSTYYADSVKGRFTISRDNAKNTVYLQMDSLKPEDTAVYYCAADSYTDYAQLWLPELESEYDYWGQGTLVTVSSPLAPCPPCPAPEAAGAPSVFLFPPKPKDTLMISRTPEVTCVVVDVSHEDPEVKFNWYVDGVEVHNAKTKPREEQYNSTYRVVSVLTVLHQDWLNGKEYKCKVSNKALPAPIEKTISKAKGQPREPQVCTLPPSRDELTKNQVSLSCAVKGFYPSDIAVEWESNGQPENNYKTTPPVLDSDGSFFLVSKLTVDKSRWQQGNVFSCSVMHEALHNHYTQKSLSLSPGWSHPQFEK
chain 2: QLQLVESGGGLVQAGGSLRLSCAASRSITFSHNVMGWYRQAPGKQRELVASIGSGGSTNYVDSVKGRATISRDNAKKTVYLQMNSLKPEDTAVYYCGVVVGVYRGSLGQGTLVTVSSPLAPCPPCPAPEAAGAPSVFLFPPKPKDTLMISRTPEVTCVVVDVSHEDPEVKFNWYVDGVEVHNAKTKPREEQYNSTYRVVSVLTVLHQDWLNGKEYKCKVSNKALPAPIEKTISKAKGQPREPQVYTLPPCRDELTKNQVSLWCLVKGFYPSDIAVEWESNGQPENNYKTTPPVLDSDGSFFLYSKLTVDKSRWQQGNVFSCSVMHEALHNHYTQKSLSLSPGEPEA
Regarding B1, the “HEK-Blue assay, % human IL-18” value in experiment [1] is 65 % of human IL18 activity. For the same molecule, the “HEK-Blue assay, % hu-IL-18” value in experiment [2] was 89 % of human IL18 activity.

B2: DGL207 (bispecific antibody)
chain 1: QVQLVESGGGLVQAGGSLRLSCAASGRTFSKHAMGWFRQAPGKEREFVAAIDWSGGSTYYADSVKGRFTISRDNAKNTVYLQMDSLKPEDTAVYYCAADSYTDYAQLWLPELESEYDYWGQGTLVTVSSCPPCPAPEAAGAPSVFLFPPKPKDTLMISRTPEVTCVVVDVSHEDPEVKFNWYVDGVEVHNAKTKPREEQYNSTYRVVSVLTVLHQDWLNGKEYKCKVSNKALPAPIEKTISKAKGQPREPQVCTLPPSRDELTKNQVSLSCAVKGFYPSDIAVEWESNGQPENNYKTTPPVLDSDGSFFLVSKLTVDKSRWQQGNVFSCSVMHEALHNHYTQKSLSLSPGWSHPQFEK
chain 2: QLQLVESGGGLVQAGGSLRLSCAASRSITFSHNVMGWYRQAPGKQRELVASIGSGGSTNYVDSVKGRATISRDNAKKTVYLQMNSLKPEDTAVYYCGVVVGVYRGSLGQGTLVTVSSCPPCPAPEAAGAPSVFLFPPKPKDTLMISRTPEVTCVVVDVSHEDPEVKFNWYVDGVEVHNAKTKPREEQYNSTYRVVSVLTVLHQDWLNGKEYKCKVSNKALPAPIEKTISKAKGQPREPQVYTLPPCRDELTKNQVSLWCLVKGFYPSDIAVEWESNGQPENNYKTTPPVLDSDGSFFLYSKLTVDKSRWQQGNVFSCSVMHEALHNHYTQKSLSLSPGEPEA
B2: the “HEK-Blue assay, % human IL-18” value in experiment [1] was 85 % of human IL18 activity. In experiment [2], the “HEK-Blue assay, % hu-IL-18” value was 98 % of human IL18 activity.
